According to a protein production outcome set (Wang et al. 2014):

Experiment: label from the status in PepcDB records
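Further: failed if final PepcDB status was selected cloned or expressed and not failed if soluble or beyond.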

Sequence | protein production
MSAVTYTFLGPQGTFTEAALMQVPGAADATRIPCTNVNTALERVRAGEADAAMVPIENSVEGGVTATLDAIATGQELRIIREALVPITFVLVARPGVELSDIKRISTHGHAWAQCRLWVDEHLPNADYVPGSSTAASAMGLLEDDAPYEAAICAPLIAAEQPGLNVLAEDIGDNPDAVTRFILVSRPGALPERTGADKTTVVVPLPEDHPGALMEILDQFASRGVNLSRIESRPTGQYLGHYFFSIDADGHATDSRVADALAGLHRISPATRFLGSYARADKQPAVVAPHTSDAAFASAHAWVDSILKGS | not failed
MNLDHLYPFGFRSTLFDRLTPEYEDLKGLSIHQLRESVARDLEDLLNSRVAKMDDVLVNYPLARQSILQFGIIDFVGLSTANPMDREKICQSIEQSIAAHEPRLKQVKVEMLLDGHNMGALCLSIQAYLNIHPLYEPVVFDALLKPTTQQYVISAQT | failed
MSRTMAEVNRLLKKTAGLINKDTESPFQGEFRVGVDLGTADIQTIVLDADGNPLAGFMDWANVVRDGVVVDFFGASQIVREQVRRASAKLGIQIEQVTTSFPPGTDSRISTNVIEAAGLEVAGVIDEPSSVAQLLQLDHAAVVDIGGGTTGTAIIEEGRVVRSMDDATGGRHITLTLAGHFGLPYEEAEEMKRTSKDLALCRLAAPVIAKMADIVHGHIAGHKVPAIYLTGGSCALPGFLEVFAAEFPGIEIVMPSHPLYLTPLAIATYSDVLQTREQRVGLEHHHHHH | failed
MSSDKTLNVKATGIIALAVMCSRVLGLIREVLFNALFGSASMGIFLIAFRAPNLLRDLFAEGALSVSFITVFSKKIETEGEKSAWQLASKMLTLTSVFMSILCLFGIIFAKYLIFILAPGFSVKDAETTIFLTQLMFPFILLVSLAAIVMGMLNSKNVFGMPALASSFFNIGSILGGALCGWFIDPSFGERALIGLAIGTVIGGLLQLGVQFPSLRKVGFYFKPNFHWYDSGVRNTLILTIPAVIAASAVQINVLINSGFASYLGKEAVTWLNSAFRLMQFPLGVLGVAIATITLPVVSRLAATNNHSQFGSTLARAIRLAVFLTMPAAVGLWFFATPIISLIYEHGKFHASDSLQTAYALQFYALGLVAYSCIKVLSPAFYAIDKKWTPMIVSFATIILNIILNYFLIFKLSMGHRGLALSTTVSATVNFLVLYVLMTRLHNLQNRYLFNTILRCVLASAILGFMCQSIFAYGADFLYHPSFWIRAVSLAISISFAVLVYLSMCVILRVDEAKSIFMIIRHRLGFPIKFKSKQV | failed
MNLPNKLTVLRIFMIPIFIIIVSVPMDWGTISFGDTTLAVTQLVGAIIFAVASFTDWLDGKIARAQGLVTNFGKFADPLADKMLVMTAFIVLVGQGKVPAWIVAIIVCRELAVTGLRLLLVEHGEVMAAAWPGKVKTATQMVAIILLFINNIPFSALHLPLDQIMLYACLIFTIYSGVDYFAKNKDVFKGSM | failed
MFYPDPFDVIIIGGGHAGTEAAMAAARMGQQTLLLTHNIDTLGQMSCNPAIGGIGKGHLVKEVDALGGLMAKAIDQAGIQFRILNASKGPAVRATRAQADRVLYRQAVRTALENQPNLMIFQQAVEDLIVENDRVVGAVTQMGLKFRAKAVVLTVGTFLDGKIHIGLDNYSGGRAGDPPSIPLSRRLRELPLRVGRLKTGTPPRIDARTIDFSVLAQQHGDNPMPVFSFMGNASQHPQQVPCYITHTNEKTHDVIRSNLDRSPMYAGVIEGVGPRYCPSIEDKVMRFADRNQHQIFLEPEGLTSNEIYPNGISTSLPFDVQMQIVRSMQGMENAKIVRPGYAIEYDFFDPRDLKPTLESKFIQGLFFAGQINGTTGYEEAAAQGLLAGLNAARLSDDKEGWAPARSQAYLGVLVDDLCTLGTKEPYRMFTSRAEYRLMLREDNADLRLTEIGRELGLVDDERWARFNEKLENIERERQRLKSTWVTPSAEAAAEVNAHLTAPLSREASGEDLLRRPEMTYEKLTTLTPFAPALTDEQAAEQVEIQVKYEGYIARQQDEIEKQLRNENTLLPATLDYRQVSGLSNEVIAKLNDHKPASIGQASRISGVTPAAISILLVWLKKQGMLRRSA | not failed
MADFTLSKSLFSGKYRNASSTPGNIAYALFVLFCFWAGAQLLNLLVHAPGVYERLMQVQETGRPRVEIGLGVGTIFGLIPFLVGCLIFAVVALWLHWRHRRQ | failed
MKEIVTIENVSFNYHNRAVFKDFNLSIQEGDFLCVLGESGSGKSTLLGLILGLLKPSLGSVKIFNETLSNNAFLRQKIGYIAQGNSLFSHLNAMQNMTFCLNLQGINKQAAQKEAKALALKMGLDESLMDKFPNELSGGQAQRVGIIRGIIHRPELILLDEPFSALDSFNRKNLQDLIKEIHQNSHATFIMVTHDESEAQKLATKTLEIKALKQEQ | failed
MIVAVESLDTSKKRKLHAEESDLLPLPKHFCSEHQASLVNSSCPSSVIDYAECSYAMENTKTSDEASSSASFTGPSLYMFKDSIYSTGSSSSGYAATSSIEQCFSKVDHKTQEDTQDFTHMEFIYHDSEFAVEDLQEVLNPVESYILSSARWSVSNQDSKEATTKPTIDQEFEQYFSTLMM | failed
LNSSYVNGNTAGNLYNAGLFCESDGEVFFSNTNDNGRLYAMNIDGSNIHKLSNDTAMYINADKNYVYYVRNNNQKITSQTFFSYDRNSLCRIKRNGHGSTVLDPDPCIYASLIGNYIYYLHYDTQTATSLYRIRIDGEEKKKIKNHYLFTCNTSDRYFYYNNPKNGQLYRYDTASQSEALFYDCNCYKPVVLDDTNVYYMDVNRDNAIVHVNINNPNPVVLTEANIEHYNVYGSLIFYQRGGDNPALCVVKNDGTGFKELAKGEFCNINVTSQYVYFTDFVSNKEYCTSTQNPDTIKALQP | not failed
MIKYLIEKEFKQLLRNSFLPRLIFIFPCMIMLLMPWAANLEIKNIRMNIIDNDHSVISRRLVDKITASTYFQTTALPDSYEKGMEAIEAGTADLLLEIPRGFEKDWVNGGAANVLLAVNAVNGTKGGLGSSYLSAIVNDYGEELRTESGTTSFSADGNLPRIDILTQNLFNARLDYKLFMVPALMVMLLTMLCGFLPALNIVGEKEAGTIEQINVTPVGKFTFILAKLIPYWLIGFVVLTLCFVLAWTLYGIFPVGHFWVIYCFSIVFVLAVSGLGLVISNHSATMQQAMFVMWFCMLILILMSGLFTPIRSMPEWAQWITMLNPLKYFMQVMRMVYLKGSGFIDLLPQLGALLAFALLFNVWAVKSYRKSG | failed
MSEKRLPLKPVLRIDFPPGERLGHGKVELMQLIAETGSISAAGRAMDMSYRRAWLLVDALNHMFRQPVICSQRGGKQGGGAALTVFGAELLERYRGMEERMNEALREDIDWLEANRNPQDALNRDREPPTL | not failed
MWCGRNAPPRRIRRHTASKSASTAAKGGVRRACPGIVSITRPFDRTRYGSQIPPMPAISIIARTRRKDDHGRVPIRLRISHRGEKRFIALPVKVLAKKWNGDKRRVTGTHPDAGEINTFLSDLERAAFSVISRLERAGTLITAQRIKDEIQEEREEVKSAPEDFLAFAREKVKGYKRRGQIGTFRSYRTTCRKFTAFIEETYGRDEVPFGALEAELFREFRTYCYEERGNSTNTVGRELGIMRTLVRHAMKEGKLSAYPFEHITIDSEPSQKELLTPEEVERIADLEIDEESPAAEARRWFLFAYYAGGMRFSDVATLQWQHIREGRSGRPRVCYKMKKTADTVGVPLIPEAKEILCRYEEGDGEDWVFPISEGIDPGNEEALHRRKCQRNSAANRHLKELAGQAGIEKRVTFHLSRNAAAWKLYQNVGDIYKVSKFLGHSNVEQTQDYIDGFVDESRDEDFIAAMT | failed
MLTLDLSAVRCQNGVPFLRYYWNLPVNQSHSGPLANNHAQLGLLFISVAVLFWGMLPIALKLSGSFIDPVTLTWFRFLVALIVSILVQWSAGSLKQFAALDAKVWLRLILAGLFLMLNYVSFVYSLDYLAPGAAQLNFQTSPFFLAFGGVLFFKERLNAIQLSCFASLALGMLMFFHPFLDFSATDNHEIWLGVMIVQFSALSWTTYALLQKSLLNRLSPANVLLVIYALGIFAMAPFSDFSQFAQMNSFDWQVALFCAANTLIAYGCFGQSMKYWPTAQVSAMLALTPVFSFSATALVVSIGWWPEVFRADELDALSLFGIGVIIVSVMVVQLLPLYRQRRARRLQPI | failed
MATEKYHEILKKYFLSFETGDFSQVQFSCNLEFLSPISGNTLKGTEEVIPFLKGVTTRVAEVNIMSTTVEYPRASGVWQMRTTKGTLYTLHNFFRLDEEGIVYVWPMFDPKAVMENPDALIQWLTGKDY | not failed
MLNNFLNLELLNISLSYPFLFLITTAIVLLLCSGFWKFHRSFYIGISSLSLIVSAFLILNNANAQGLEAKAFLATLNNDIVSFYASLVILCFSFLYLLMQKEENQGEFYALFLFMIASLLLMVSSSNLVLIFIGLESSSLALYTLIAMRGSDNAISSAIKYFSIAAVGAGFFVMAVAFIYLKTGTLDLSANLALKNEFQKDPMLLGAGVMIFVLCAIKLSLAPFHFWLKDVYYAAHTNLVAFISVVPKVAMLVVVIRLFDFLNNTGFEYIIIVLAIFSMLIGAFAALSQNNIKKMFAYSSVVHSSLVLIACIPLLKEQNFDGILLAIFGYWTLFAFANYAVFMILSNYENNSYESLNGLLVKKPLIAFCLSISVLSLAGIPPFGVFWGKFMILNTVILNGYWYLALFVALSSVIMLYAYLKILIHVLFMKNDRVYNIKFSFIQNFILAFCVCVSIFAILLML | failed
QKGRVETRRVVHIMDFQRGKNLRYQLLQLVEPFGVISNHLILNKINEAFIEMATTEDAQAAVDYYTTTPALVFGKPVRVHLSQKYKRIK | not failed
MLKRIFTVGGFTLLSRLTGFARDIMLAAILGAGPVADAFFVALRLPNHFRAIFAEGAFNAAFVPAYAHVHGEKGEASAKLFADRIFTLLFLSQLVLLAVALAFMPQMMSILAPGFTDDPEQRALAIELTRITFPYLLLITLVTLYGGILNVMQRFASAAAASIFLNISMMATLALAAFFPSAGHAAAWGVLISGVLQYFLLAGDLSLHGGLPRFARPKLDEDVRAFFRALGPATLGSMGTQLALFADTIIATFLPAGALSALYYADRLNQLPIGVIGIAIGTVLLPEMSRQLTAGDDAGAKASQRRAFEFTLLFSVPFVAAFLTVPDEIMRAMFARGAFTRADAISAGTTLAAYAIALIPFVLIRSAVAPFYARKDTATPVKAALTGVATNVVLKFALMGSLAQVGLALATAAGAWINLLLVIFFSVRAGYLEFDRELVRAILKFGIIGVLLGAALWLTAWLAPPYLALLPALRSEAALALLILVGAVIYGAAILILFGPRWIKRLLRG | failed
METYPITVGGVTRHVPLIEPLPGRRIPLVEFLGDPEFTRAAAEALRPLVPKEAEILFTTETSPIPLTHVLAEALGLPYVVARRRRRPYMEDPIIQEVQTLTLGVGEVLWLDRRFAEKLLNQRVVLVSDVVASGETMRAMEKMVLRAGGHVVARLAVFRQGTPGLAVDTVAELPVL | not failed
MIEFVYPHTQLVAGVDEVGRGPLVGAVVTAAVILDPARPIAGLNDSKKLSEKRRLALYEEIKEKALSWSLGRAEPHEIDELNILHATMLAMQRAVAGLHIAPEYVLIDGNRCPKLPMPAMAVVKGDSRVPEISAASILAKVTRDAEMAALDIVFPQYGFAQHKGYPTAFHLEKLAEHGATEHHRRSFGPVKRALGLAS | not failed
MGHHHHHHHHHHSSGHIDDDDKHMEVSVLIPAAGNGLRLGRGPKAFLQVGGRTLLEWTLAAFRDAAEVLVALPPGAEPPKGLGAVFLEGGATRQASVARLLEAASLPLVLVHDVARPFVSRGLVARVLEAAQRSGAAVPVLPVPDTLMAPEGEAYGRVVPREAFRLVQTPQGFFTALLREAHAYARRKGLEASDDAQLVQALGYPVALVEGEATAFKITHPQDLVLAEALARVWSA | not failed
MVHDSALPFDALPMPPQGREGFEECPYLDSQWVADTNGQRMTGQGVDTRFDTPACVFWSYPEAPQATVMVRHMPSEEEAIRVVDWAAPIDTTEPAEEPDGWSGGRAGHEEGAVYAVQKGPVAVVVWSNQQQSLKAELMAKEAIARLGL | not failed
